We go through six molecules from PMC5823465 (PLoS Neglected Tropical Diseases, 2018).

What all share (assay): ELISA; competition ELISA, KD in solution at equilibrium: serial dilutions of EDIII mixed with antibody at 0.2 nM, incubated overnight; unbound or singly bound antibody measured on Maxisorp plates coated with EDIII-DV1, detected with HRP rabbit anti-human IgG; mass action model adjusted for antibody bivalence
In general terms: An ELISA detects its analyte on a solid surface through an enzyme-linked reagent.

One experiment concerns the target VIS513.
Experiment [1] has as its target EDIII domain of the E protein, DENV1 HAW, wild type (Dengue virus type 1, strain Hawaii 1944 …, UniProt A0A097PIH4, strain). As to conditions: both partners purified.
The target in experiment [2] is T1, EDIII domain of the E protein, DENV2 NGC, wild type (Dengue virus type 2, strain NGC …, UniProt A0A097PIE2, strain).
T1 construct: also called DENV2 NGC WT; DV2-NGC
The note with it: both partners purified.

Experiment [3] has as its target EDIII domain of the E protein, DENV3 H87, wild type (Dengue virus type 3, strain H87 …, UniProt A0A0U2UQM7, strain). The note with it: both partners purified.

In general, Kd refers to the concentration at which binding is half-saturated. Lower therefore signals tighter binding. Regarding “EDIII domain of the E protein, DENV1 HAW, K310R (domain or fragment)”, in the experiment with VIS513, the Kd turned out to be 0.39 nM.

In the experiment with VIS513, “EDIII domain of the E protein, DENV2 NGC, K310R (domain or fragment)” showed a Kd of 0.79 nM.

“EDIII domain of the E protein, DENV3 H87, K308R (domain or fragment)”: the Kd with VIS513 amounted to 170 nM.

With “EDIII domain of the E protein, DENV3 H87, L301S (domain or fragment)”, the Kd with VIS513 is 1.7 nM. Same read-out and setting: under “EDIII domain of the E protein, DENV4 BC287, K310R (domain or fragment)” stands 618 nM.

B1: VIS513 (antibody, V domains shown)
VH: QVQLVQSGAEVKKPGASVKVSCKAGFNIKDVYMSWVRQAPEQGLEWMGRIDPENGDTKYDPKLQGRVTMTADTSTNTAYMELRSLRSDDTAVYYCARGWEGFAYWGQGTLVTVSS
VL: DIVMTQSPASLAVSLGQRATISCRASENVDKYGNSFMHWYQQKPGQPPKLLIYRASELQWGVPDRFSGSGSGTDFTLTISSLQAEDVAVYYCQRSNEVPWTFGQGTKLEIK
Turning to B1, the Kd in experiment [1] is below 0.1 nM; in experiment [2] it was below 0.1 nM; in experiment [3], 1.5 nM.
